In assay [1] the target is thyroid hormone receptor beta (TRb), His-tagged, from pETSUMO-TRb (UniProt P10828). Kind of assay: peptide or protein array.
In assay [2] the target is human Hsp90a (heat shock protein 90 alpha), purified full-length (human) (UniProt P07900). Kind of assay: peptide or protein array.

What is called EC50 is the concentration needed to bring the measured effect to its halfway point. Read a high EC50 as weaker potency. Regarding “human Hsp90a (heat shock protein 90 alpha), purified full-length (from UniProt P07900 1-732) (natural protein)”, the EC50 in assay [1] came to 124 nM.

Take “thyroid hormone receptor beta (TRb), His-tagged, from pETSUMO-TRb (from UniProt P10828 1-461)”: the EC50 in assay [2] came out at 1240 nM.

Source of the values: PMC9404468.
